Measurements taken from patent US20260167721A1 (ABLEXIS, published 2026).

Tests used:
[1] = biological target: T1, recombinant human CD3 epsilon/delta heterodimer (human, UniProt P07766 23-126; P04234 22-105); experiment: BLI (Octet), mAb 5 ug/mL on FAB2G sensor, hCD3 E/D 200-50 nM
T1 construct: Recombinant heterodimer used as analyte in Octet; also called hCD3 E/D; human CD3E/D
T1 sequence (P07766 23-126, stated change not applied, chain 1 of 2): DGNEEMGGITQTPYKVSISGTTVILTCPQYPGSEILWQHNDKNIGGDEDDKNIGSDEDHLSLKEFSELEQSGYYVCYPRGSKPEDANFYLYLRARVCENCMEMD
T1 sequence (P04234 22-105, stated change not applied, chain 2 of 2): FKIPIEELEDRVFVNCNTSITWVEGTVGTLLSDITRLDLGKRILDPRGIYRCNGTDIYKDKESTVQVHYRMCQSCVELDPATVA
Experimental: (§1) Samples were evaluated by flow cytometry analysis against Jurkat and human Pan-T cells (FIG. 1B) as well as by Octet against recombinant human CD3 proteins to evaluate apparent affinities and binding off-rates (Table 6, infra).

[2] = biological target: T2, recombinant human CD3 epsilon/gamma heterodimer (human, UniProt P07766 23-126; P09693 23-116); experiment: BLI (Octet), mAb 5 ug/mL on FAB2G sensor, hCD3 E/G 200-50 nM;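 further: antibodies purified from hybridoma supernatants, measured by Octet binding to recombinant human CD3 protein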
T2 construct: Recombinant heterodimer used as analyte in Octet; also called hCD3 E/G
T2 sequence (P07766 23-126, chain 1 of 2): as the sequence (P07766 23-126, stated change not applied, chain 1 of 2) above
T2 sequence (P09693 23-116, chain 2 of 2): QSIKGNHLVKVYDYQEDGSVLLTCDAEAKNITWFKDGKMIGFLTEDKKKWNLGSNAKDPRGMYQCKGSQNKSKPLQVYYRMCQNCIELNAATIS
Experimental: as §1

[3] = biological target: T3, recombinant human CD3 epsilon/gamma heterodimer (human, UniProt P07766 23-126; P09693 23-116); experiment: Octet BLI, mAb on FAB2G sensor, hCD3 E/G 200-50 nM; R^2 0.99
T3 construct: Recombinant protein in solution (200-50 nM) in the Octet assay; also called hCD3 E/G
T3 sequence (P07766 23-126, chain 1 of 2): as the sequence (P07766 23-126, stated change not applied, chain 1 of 2) above
T3 sequence (P09693 23-116, chain 2 of 2): as the sequence (P09693 23-116, chain 2 of 2) above

[4] = biological target: T4, recombinant human CD3 epsilon/delta heterodimer (human, UniProt P07766 23-126; P04234 22-105); experiment: Octet BLI, mAb on FAB2G sensor, hCD3 E/D 200-50 nM; R^2 0.99
T4 construct: Recombinant protein in solution (200-50 nM) in the Octet assay; also called hCD3 E/D; human CD3E/D
T4 sequence (P07766 23-126, stated change not applied, chain 1 of 2): as the sequence (P07766 23-126, stated change not applied, chain 1 of 2) above
T4 sequence (P04234 22-105, stated change not applied, chain 2 of 2): as the sequence (P04234 22-105, stated change not applied, chain 2 of 2) above

Binder | Kd [1] [nM] | Response [1] | koff [1] [s⁻¹] | Kd [2] [nM] | Response [2] | koff [2] [s⁻¹] | kon [2] [M⁻¹ s⁻¹] | Kd [3] [nM] | Response [3] | koff [3] [s⁻¹] | kon [3] [M⁻¹ s⁻¹] | Kd [4] [nM] | Response [4] | koff [4] [s⁻¹] | kon [4] [M⁻¹ s⁻¹] | kon [1] [M⁻¹ s⁻¹]
ABL-CD3-3 (antibody, V domains shown, Chimeric hybridoma mAb: human V, CH1, upper hinge; mouse middle hinge, CH2, CH3) VH: EVQLVESGGGLVKPGGSLRLSCAASGFTFSSYSMNWVRQAPGKGLEWVSYISRSSNYIHYADSVKGRFTIFRDNAKNSLYLQMNSLRVEDTAVYYCARAERGSYAVDIWGQGTMVTVSS VL: not shown | – | – | – | – | – | – | – | 12.4 | 0.96 | 0.00143 | 115000 | 10.4 | 1.03 | 0.0012 | 116000 | –
ABL-CD3-4 (antibody, V domains shown, Chimeric hybridoma mAb: human V, CH1, upper hinge; mouse middle hinge, CH2, CH3) VH: VQLVESGGGLVKPGGSLRLSCAASGFTFSSYNMNWVRQAPGKGLEWVSSISSSSSYIYYADSVKGRFTISRDNAKNSLYLQMNSLRAEDTAVFYCARAERGSYAFDIWGQGTMVTVSS VL: not shown | – | – | – | – | – | – | – | 91.9 | 0.36 | 0.0221 | 241000 | 94.5 | 0.32 | 0.0302 | 320000 | –
ABL-CD3-5 (antibody, V domains shown, Chimeric hybridoma mAb: human V, CH1, upper hinge; mouse middle hinge, CH2, CH3) VH: EVQLVESGGGLVQPGGSLRLSCAASGFTFSRYSMNWVRQAPGKGLEWVSYISSSSSSIYYADSVKGRFTISRDNAKNSLYLQMNSLRDEDTAVYYCARDRRATLDYWGQGTLVTVSS VL: NFMLTQPHSVSESPGKTVTISCTRSSGSIASNYVQWYQQRPGSSPTTVIYEDNQRPSGVPDRFSGSIDSSSNSASLTISGLKTEDEADYYCQSYDSSNHVFGGGTKLTVL | – | – | – | – | – | – | – | 106 | 0.27 | 0.0449 | 423000 | 88.1 | 0.36 | 0.0321 | 365000 | –
ABL-CD3-48 (antibody, V domains shown, Chimeric hybridoma mAb: human V, CH1, upper hinge; mouse middle hinge, CH2, CH3) VH: EVQLVESGGGLVKPGGSLRLSCAASGFTFSSYTMNWVRQAPGKGLEWVSSISGSGSYIYYADSVKGRFTISRDNAKNSLYLQMNSLRAEDTAVYYCAREPPTLGMDYWGQGTLVTVSS VL: NFMLTQPHSVSESPGKTVTISCTRSSGSIASNYVQWYQQRPGSSPTTVIYEDNQRPSGVPDRFSGSIDSSSNSASLTISGLKTEDEADYYCQSFDSSNRVFGGGTKLTVL | – | – | – | – | – | – | – | 17.9 | 1.03 | 0.00179 | 100000 | 11.5 | 1.17 | 0.00114 | 99300 | –
ABL-CD3-7 (antibody, V domains shown, Chimeric hybridoma mAb: human V, CH1, upper hinge; mouse middle hinge, CH2, CH3) VH: EVQLVESGGGLVKPGGSLRLSCAASGFTFSRYSMNWVRQAPGKGLKWVSSISSSGSYKYYADSVKGRFTISRDNAKNSLYLQMNSLRAEDTAVYYCAREPPTLGMDYWGQGTLVTVSS VL: NFMLTQPHSVSESPGKTVTISCTRSSGSIASNYVQWYQQRPGSSPTTVIYEDNQRPSGVPDRFSGSIDSSSNSASLTISGLKTEDEADYYCQSFDNSNRVFGGGTKLTVL | – | – | – | – | – | – | – | 8.42 | 0.81 | 0.00142 | 169000 | 4.14 | 0.86 | 0.000786 | 190000 | –

The remaining lines, values ahead:

Kd [1] [nM] | Response [1] | koff [1] [s⁻¹] | Kd [2] [nM] | Response [2] | koff [2] [s⁻¹] | kon [2] [M⁻¹ s⁻¹] | Kd [3] [nM] | Response [3] | koff [3] [s⁻¹] | kon [3] [M⁻¹ s⁻¹] | Kd [4] [nM] | Response [4] | koff [4] [s⁻¹] | kon [4] [M⁻¹ s⁻¹] | kon [1] [M⁻¹ s⁻¹] | Binder
< 0.001 | 0.01 | 0.0135 | < 0.001 | -0.01 | < 1e-07 | 50000 | – | – | – | – | – | – | – | – | – | ABL-CD3-77 (antibody, V domains shown, mAb purified from hybridoma; chimeric AlivaMab IgG (human VH, CH1 and upper hinge; mouse middle hinge, CH2, CH3; human light chain)) VH: EVQLVESGGGLVKPGGSLRLSCAASGFTFSSYSMNWVRQAPGKGLEWVSSISSSSSYIYYADSVKGRFTISRDNAKNSLYLQMNSLRAEDTAVYYCARDGELGIGTYFDYWGQGTLVTVSS VL: QSVLTQPPSVSGAPGQRVTISCTGSSSNIGAGYDVHWYQQLPGTAPKLLIYGNSNRPSGVPDRFSGSKSGTSASLAITGLQAEDEADYYCQSYDSSLSGSVFGGGTKLTVL
125 | 0.36 | 0.0108 | 148 | 0.11 | 0.036 | 243000 | – | – | – | – | – | – | – | – | 86200 | ABL-CD3-80 (antibody, V domains shown, mAb purified from hybridoma; chimeric AlivaMab IgG (human VH, CH1 and upper hinge; mouse middle hinge, CH2, CH3; human light chain)) VH: EVQLVESGGGLVKPGGSLRLSCAASGFTFSGYSMNWVRQAPGKGLEWVSSISSRSRYIYYADSVQGRFTISRDNSKNSLFLQMNSLRAEDTAVYYCGRDWRELLLDYWGQGTLVTVSS VL: SYELTQPPSVSVSPGQTARITCSGDALPKKYAYWYQQKSGQAPVLVIYEDSKRPSGIPERFSGSSSGTMATLTISGAQVEDEADYYCYSTDSSGNHSWVFGGGTKLTVL
120 | 0.22 | 0.0473 | 412 | 0.07 | 0.162 | 393000 | – | – | – | – | – | – | – | – | 393000 | ABL-CD3-79 (antibody, V domains shown, mAb purified from hybridoma; chimeric AlivaMab IgG (human VH, CH1 and upper hinge; mouse middle hinge, CH2, CH3; human light chain)) VH: EVQLVESGGGLVKPGGSLRLSCAASGFTVSNYSMNWVRQAPGKGLEWVSCISRSSSYIYYADSVKGRFTISRDNAKNSLFLQMNSLRAEDTAVYYCARERWELLYFDYWGQGTLVTVSS VL: QTVVTQEPSFSVSPGGTVTLTCGLSSGSVSTSYYPSWYQQTPGQAPRTLIYSTNTRSSGVPDRFSGSILGNKAALTITGAQADDESDYYCVLYMGSGIWVFGGGTKLTVL
22 | 0.03 | 0.00882 | 37.6 | 0.01 | 0.00649 | 173000 | – | – | – | – | – | – | – | – | 401000 | ABL-CD3-83 (antibody, V domains shown, mAb purified from hybridoma; chimeric AlivaMab IgG (human VH, CH1 and upper hinge; mouse middle hinge, CH2, CH3; human light chain)) VH: EVQLVESGGGLVKPGGSLRLSCAASGFTFSSYSMNWVRQAPGKGLEWVSTISRSGGYIYDADSVKGRFTISRDNAKNSLYLQMNSLRAEDTAVYYCARDFNWTFDNWGQGTLVTVSS VL: NFMLTQPHSVSESPGKTVTISCTRSSGSIASNYVQWYQQRPGSSPTTVIYEDNQRPSGVPDRFSGSIDSSSNSASLTISGLKTEDEADYYCQSSDRSNVVFGGGTKLTVL
27.9 | 0.042 | 0.00689 | 29.8 | 0.64 | 0.00608 | 204000 | – | – | – | – | – | – | – | – | 247000 | ABL-CD3-85 (antibody, V domains shown, mAb purified from hybridoma; chimeric AlivaMab IgG (human VH, CH1 and upper hinge; mouse middle hinge, CH2, CH3; human light chain)) VH: EVQLVESGGGLVKPGGSLRLSCAASGFTFSSYSMNWVRQAPGKGLEWVSSISRRSGYIYYADSVKGRFTLSRDNAKKSLYLQMNSLRAEDTAVYYCARDLNWAFDYWGQGTLVTVSS VL: NFMLTQPHSVSESPGKTVTISCTRSSGSIASNYVQWYQQRPGSSPTTVIYEDNHRPSGVPDRFSGSIDSSSNSASLTIAGLKTEDEADYYCQSCDSSNVVFGGGTKLTVL
3.88 | 1.1 | 0.000711 | 3.52 | 1.17 | 0.000558 | 158000 | – | – | – | – | – | – | – | – | 184000 | ABL-CD3-86 (antibody, V domains shown, mAb purified from hybridoma; chimeric AlivaMab IgG (human VH, CH1 and upper hinge; mouse middle hinge, CH2, CH3; human light chain)) VH: EVQLVESGGGLVKPGGSLRLSCAASGFTFSRYSMNWVRQAPGKGLEWVSTISRSSRYIYYGDSVKGRFTISRDNAKNSLLLQMNSLRAEDTAVYYCARDHNWSFDYWGKGILVTVSS VL: NFMLTQPLSVSESPGKTLTISCTRNSGSIASNYVQWYRQRPGSSPTTVIYEDKQRPSGVPDRFSGSIDSSSNSASLTISGLKAEDEADYYCQSCDSSNVVFGGGTTLTVL
283 | 0.17 | 0.107 | 912 | 0.04 | 0.692 | 759000 | – | – | – | – | – | – | – | – | 378000 | ABL-CD3-81 (antibody, V domains shown, mAb purified from hybridoma; chimeric AlivaMab IgG (human VH, CH1 and upper hinge; mouse middle hinge, CH2, CH3; human light chain)) VH: QVQLQESGPGLVKPSQTLSLTCTVSGGSISSGGYYWSWIRQHPGKGLEWIGYIYYSGSTYYNPSLKSRVTISVDTSKDQFSLKLSSVTAADTAVYYCARERKTSLPFDIWGQGTMVTVSS VL: NFMLTQPHSVSESPGKTVTISCTRSSGSIASNYVQWYQQRPGSSPTTVIYEDNQRPSGVPDRFSGSIDSSSNSASLTISGLKTEDEAYYYCQSFDSSNRVFGGGTKLTVL
